Measured values as given in patent US20240010680A1, “PEPTIDE DISINFECTANT FOR PREVENTING CORONAVIRUSES” (Xiamen University, priority 2021, published 2024).

Target: hACE2-His purified protein (human (printed as hACE2)) (UniProt Q9BYF1)
Sequence (Q9BYF1 18-740 limits assumed): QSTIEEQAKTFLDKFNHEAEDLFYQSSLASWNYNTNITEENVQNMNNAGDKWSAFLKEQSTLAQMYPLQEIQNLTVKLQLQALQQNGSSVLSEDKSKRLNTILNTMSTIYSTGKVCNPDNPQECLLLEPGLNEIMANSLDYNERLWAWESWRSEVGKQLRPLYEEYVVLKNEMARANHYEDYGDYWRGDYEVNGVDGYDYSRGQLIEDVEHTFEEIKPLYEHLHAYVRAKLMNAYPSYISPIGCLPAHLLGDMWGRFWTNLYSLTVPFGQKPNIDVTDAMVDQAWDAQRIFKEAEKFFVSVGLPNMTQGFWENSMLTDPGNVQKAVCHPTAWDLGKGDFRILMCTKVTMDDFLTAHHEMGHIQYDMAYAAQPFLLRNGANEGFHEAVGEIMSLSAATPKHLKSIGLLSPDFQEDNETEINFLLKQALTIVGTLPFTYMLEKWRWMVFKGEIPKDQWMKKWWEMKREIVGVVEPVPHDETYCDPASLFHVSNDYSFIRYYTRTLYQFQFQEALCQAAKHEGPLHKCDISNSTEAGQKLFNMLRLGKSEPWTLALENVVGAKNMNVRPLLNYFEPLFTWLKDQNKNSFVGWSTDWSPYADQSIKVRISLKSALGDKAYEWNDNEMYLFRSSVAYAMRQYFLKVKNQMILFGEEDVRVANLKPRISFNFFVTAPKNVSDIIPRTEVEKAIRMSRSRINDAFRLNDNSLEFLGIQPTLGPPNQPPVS

Substance S1-HA purified protein (ligand) has a Relative brightness value of 100%.
